The values below come from FireProtDB (doi:10.1021/bi972642d).

Sequences and labels used below:
B1: Protein S100-G, P02633 (parent)
chain: MSAKKSPEELKGIFEKYAAKEGDPNQLSKEELKLLLQTEFPSLLKGPSTLDELFEELDKNGDGEVSFEEFQVLVKKISQ

The data set covers variants of B1. As to conditions: Bos taurus; pH 7; 25 °C; Urea; CD; Potassium phosphate 10 mM; structure 1IGV; whole UniProt chain shown.

Regarding L32A, the “ddG of mutation (higher = less stable)” value worked out at 2.7 kcal/mol, the denaturant m value was determined as 1.03 kcal/mol/M, the “denaturant midpoint (higher = more stable)” value (“denaturant midpoint” below) was found to be 3.8 M and the unfolding free energy was 3.85 kcal/mol.
Regarding I77V, the “ddG of mutation (higher = less stable)” value was 1.53 kcal/mol, the denaturant m value is 1.15 kcal/mol/M, the “denaturant midpoint” value stood at 4.4 M and the unfolding free energy is 5.02 kcal/mol.
In the case of L27G, the “ddG of mutation (higher = less stable)” value worked out at 4.28 kcal/mol, the denaturant m value was 1.22 kcal/mol/M, the “denaturant midpoint” value turned out to be 1.8 M and the unfolding free energy worked out at 2.27 kcal/mol.
Turning to L27A, the “ddG of mutation (higher = less stable)” value was determined as 3.73 kcal/mol, the denaturant m value stood at 1.03 kcal/mol/M, the “denaturant midpoint” value was 2.7 M and the unfolding free energy came out at 2.82 kcal/mol.
As for L10V, the “ddG of mutation (higher = less stable)” value worked out at 2.2 kcal/mol, the denaturant m value stood at 1 kcal/mol/M, the “denaturant midpoint” value came to 4.3 M and the unfolding free energy was 4.35 kcal/mol.
For V74L, the “ddG of mutation (higher = less stable)” value came to 1.2 kcal/mol, the denaturant m value stood at 0.81 kcal/mol/M, the “denaturant midpoint” value was found to be 6.6 M and the unfolding free energy was determined as 5.35 kcal/mol.
Take V65G: the “ddG of mutation (higher = less stable)” value turned out to be 4.35 kcal/mol, the denaturant m value amounted to 0.86 kcal/mol/M, the “denaturant midpoint” value stood at 2.6 M and the unfolding free energy turned out to be 2.2 kcal/mol.
The matching figures for V65A: 3.78 kcal/mol, 0.81 kcal/mol/M, 3.4 M and 2.77 kcal/mol.
Take F14A: the “ddG of mutation (higher = less stable)” value came to 4.83 kcal/mol, the denaturant m value is 0.88 kcal/mol/M, the “denaturant midpoint” value was 2 M and the unfolding free energy was 1.72 kcal/mol.
In the case of F70W, the “ddG of mutation (higher = less stable)” value came to 2.34 kcal/mol, the denaturant m value was determined as 0.69 kcal/mol/M, the “denaturant midpoint” value came out at 6.1 M and the unfolding free energy is 4.21 kcal/mol.
For the variant F70A, the “ddG of mutation (higher = less stable)” value stood at 4.97 kcal/mol, the denaturant m value turned out to be 0.79 kcal/mol/M, the “denaturant midpoint” value was found to be 2 M and the unfolding free energy came out at 1.58 kcal/mol.
